B1: minF1; the commonest letter at each place (parent)
chain: GAGACCGCAACTGAAAAGTTGTTATCAGAAATGGATGGGTTGAATTTCTGCACGTAGAAGCAAAAGGC

Variants of: B1
Assay: fraction ligated after 30 min (ligated reads / total reads); higher = more ligase activity
Details: with F1*subA RNA substrate (template-directed ligation), 42 °C
Summary of the method: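 Templates from an oligo pool encoding minimized ligase ribozyme variants were amplified by PCR, transcribed with T7, and purified on gels. Gel electrophoresis separated ligated from unligated RNAs, which were then reverse transcribed using barcoded primers and sequenced on a MiSeq, keeping core bases with quality ≥30. For each variant, fraction ligated equals ligated reads divided by total reads.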

Variant	fraction ligated
GAGACCGCAACTGAAAAGTTGTTCTGAGAAATGGATGGGTTGAATTTCTGCACGTAGAAGCAAAAGGC	0.032
GAGACCGCAACTGAAAAGTTGTTCTTAGAAATGGATGGGTTGAATTTCTGCACGTAGAAGCAAAAGGC	0.0975
GAGACCGCAACTGAAAAGTTGTTCTAAGAAATGGATGGGTTGAATTTCTGCACGTAGAAGCAAAAGGC	0.0482
GAGACCGCAACTGAAAAGTTGTGATCAGAAATGGATGGGTTAAATTTCTGCACGTAGAAGCAAAAGGC	0.204
GAGACCGCAACTGAAAAGTTGTGATCAGAAATGGATGGGTTCAATTTCTGCACGTAGAAGCAAAAGGC	0.00862
GAGACCGCAACTGAAAAGTTGTGATCAGAAATGGATGGGTTTAATTTCTGCACGTAGAAGCAAAAGGC	0.0401
GAGACCGCAACTGAAAAGTTGTTCTCAGAAATGGATGGGTTGAATTTCTGCACGTAGAAGCAAAAGGC	0.025
GAGACCGCAACTGAAAAGTTGTTGTCAGAAATGGATGGGTTGAATTTCTGCACGTAGAAGCAAAAGGC	0.122
GAGACCGCAACTGAAAAGTTGTTGTCAGGAATGGATGGGTTGAATTTCTGCACGTAGAAGCAAAAGGC	0.0952
GAGACCGCAACTGAAAAGTTGTTGTCAGCAATGGATGGGTTGAATTTCTGCACGTAGAAGCAAAAGGC	0.0668
GAGACCGCAACTGAAAAGTTGTGATCAGAAATCGATGGGTTGAATTTCTGCACGTAGAAGCAAAAGGC	0.73
GAGACCGCAACTGAAAAGTTGTGATCAGAAATAGATGGGTTGAATTTCTGCACGTAGAAGCAAAAGGC	0.801
GAGACCGCAACTGAAAAGTTGTGATCAGAAATTGATGGGTTGAATTTCTGCACGTAGAAGCAAAAGGC	0.556
GAGACCGCAACTGAAAAGTTGTTCTCAAAAATGGATGGGTTGAATTTCTGCACGTAGAAGCAAAAGGC	0.0266
GAGACCGCAACTGAAAAGTTGTTCTCACAAATGGATGGGTTGAATTTCTGCACGTAGAAGCAAAAGGC	0.0343
GAGACCGCAACTGAAAAGTTGTTCTCATAAATGGATGGGTTGAATTTCTGCACGTAGAAGCAAAAGGC	0.0617
GAGACCGCAACTGAAAAGTTGTTCTCAGTAATGGATGGGTTGAATTTCTGCACGTAGAAGCAAAAGGC	0.0449
GAGACCGCAACTGAAAAGTTGTTCTCAGCAATGGATGGGTTGAATTTCTGCACGTAGAAGCAAAAGGC	0.0282
GAGACCGCAACTGAAAAGTTGTTCTCAGGAATGGATGGGTTGAATTTCTGCACGTAGAAGCAAAAGGC	0.0302
GAGACCGCAACTGAAAAGTTGTTCACAGAAATGGATGGGTTGAATTTCTGCACGTAGAAGCAAAAGGC	0.0142

Variant	fraction ligated
GAGACCGCAACTGAAAAGTTGTTCGCAGAAATGGATGGGTTGAATTTCTGCACGTAGAAGCAAAAGGC	0.0197
GAGACCGCAACTGAAAAGTTGTTCCCAGAAATGGATGGGTTGAATTTCTGCACGTAGAAGCAAAAGGC	0.0235
GAGACCGCAACTGAAAAGTTGTTCTCAGAAATGGATGGGTTTAATTTCTGCACGTAGAAGCAAAAGGC	0.00251
GAGACCGCAACTGAAAAGTTGTTCTCAGAAATGGATGGGTTCAATTTCTGCACGTAGAAGCAAAAGGC	0.000786
GAGACCGCAACTGAAAAGTTGTTCTCAGAAATGGATGGGTTAAATTTCTGCACGTAGAAGCAAAAGGC	0.00275
GAGACCGCAACTGAAAAGTTGTTCTCAGAAATGGATGGGTTGAGTTTCTGCACGTAGAAGCAAAAGGC	0.00645
GAGACCGCAACTGAAAAGTTGTTCTCAGAAATGGATGGGTTGACTTTCTGCACGTAGAAGCAAAAGGC	0.00359
GAGACCGCAACTGAAAAGTTGTTCTCAGAAATGGATGGGTTGATTTTCTGCACGTAGAAGCAAAAGGC	0.0123
GAGACCGCAACTGAAAAGTTGTTCTCAGAAATGGATGGGTTGCATTTCTGCACGTAGAAGCAAAAGGC	0.0036
GAGACCGCAACTGAAAAGTTGTTCTCAGAAATGGATGGGTTGGATTTCTGCACGTAGAAGCAAAAGGC	0.00364
GAGACCGCAACTGAAAAGTTGTTCTCAGAAATGGATGGGTTGTATTTCTGCACGTAGAAGCAAAAGGC	0.0035
GAGACCGCAACTGAAAAGTTGTTCTCAGAAATGGATAGGTTGAATTTCTGCACGTAGAAGCAAAAGGC	0.00687
GAGACCGCAACTGAAAAGTTGTTCTCAGAAATGGATCGGTTGAATTTCTGCACGTAGAAGCAAAAGGC	0.00569
GAGACCGCAACTGAAAAGTTGTTCTCAGAAATGGATTGGTTGAATTTCTGCACGTAGAAGCAAAAGGC	0.00693
GAGACCGCAACTGAAAAGTTGTTCTCAGAAATGCATGGGTTGAATTTCTGCACGTAGAAGCAAAAGGC	0.00204
GAGACCGCAACTGAAAAGTTGTTCTCAGAAATGAATGGGTTGAATTTCTGCACGTAGAAGCAAAAGGC	0.0317
GAGACCGCAACTGAAAAGTTGTTCTCAGAAATGTATGGGTTGAATTTCTGCACGTAGAAGCAAAAGGC	0.00294
GAGACCGCAACTGAAAAGTTGTTCTCTGAAATGGATGGGTTGAATTTCTGCACGTAGAAGCAAAAGGC	0.105
GAGACCGCAACTGAAAAGTTGTTCTCGGAAATGGATGGGTTGAATTTCTGCACGTAGAAGCAAAAGGC	0.0468

From the supplement of paper PMC6755084
